Assay results reported in the supplement of paper PMC6757056.
± gives the standard deviation of the averaged measurements.

B1: library; a variant is named by its letters at N, in order (parent)
chain: GCUGUCACCGAGAAACUGUGAAGUAUAUCUUAAACCUGGGCACUUAAAAGAUAUAUGGAGUUAGUAGUGCAACCUGCUCGGUCUGAUGAGUCCNNNNNNGGACGAAACAGC

Columns and labels:
cyclic di-GMP [1] = variants of: B1; assay: normalized RNA/DNA level without ligand (relative to sTRSVctl = 100) (log10 (% of sTRSVctl)); HEK293T; ligand: cyclic di-GMP (c-di-GMP-II aptamer); higher = less ribozyme self-cleavage, higher mRNA level; conditions: reporter: mCherry (pCS4076), ligand present: no
Summary of the method: (§1)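 HEK293T cells were transfected with library plasmids carrying ribozyme switches linked to an mCherry reporter, or an eGFP reporter in some ligand experiments, at 4 µg per well of a 6-well plate, with any ligand added 1 h beforehand. After 72 h, total RNA was extracted with EDTA, reverse-transcribed, amplified, barcoded and sequenced. RNA level was defined as RNA reads over DNA reads, normalized to a spiked-in non-cleaving sequence or to the top-ranked sequences. That value was multiplied by 100 and converted to log10, the top set was 25 sequences, and only sequences with ≥100 DNA reads were retained.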

cyclic di-GMP [2] = variants of: B1; assay: normalized RNA/DNA level with ligand (relative to sTRSVctl = 100) (log10 (% of sTRSVctl)); HEK293T; ligand: cyclic di-GMP (c-di-GMP-II aptamer); ligand concentration (+) RNA-Seq: 1 mM; higher = less ribozyme self-cleavage, higher mRNA level; conditions: reporter: mCherry (pCS4076), ligand present: yes
Summary of the method: as §1

Row | Variant | normalized RNA/DNA level without ligand (log10) (cyclic di-GMP [1]) | normalized RNA/DNA level with ligand (log10) (cyclic di-GMP [2])
1 | CGCACC | 1.7 ± 0.031 | 1.83 ± 0.12
2 | CGCACG | 1.75 ± 0.038 | 1.85 ± 0.08
3 | CGCACA | 1.41 ± 0.091 | 1.59 ± 0.11
4 | CGCACU | 1.48 ± 0.12 | 1.71 ± 0.058
5 | GGCCGC | 1.71 ± 0.03 | 1.84 ± 0.097
6 | GGCAUG | 1.68 ± 0.085 | 1.7 ± 0.081
7 | GGCAUC | 1.65 ± 0.023 | 1.81 ± 0.087
8 | GGCAUA | 1.58 ± 0.11 | 1.72 ± 0.14
9 | GGCAUU | 1.66 ± 0.076 | 1.82 ± 0.021
10 | CGCAAC | 1.62 ± 0.05 | 1.78 ± 0.12
11 | CGCAAG | 1.77 ± 0.024 | 1.86 ± 0.088
12 | UGAACU | 1.72 ± 0.052 | 1.86 ± 0.11
13 | UGAACA | 1.75 ± 0.037 | 1.87 ± 0.074
14 | UGAACC | 1.78 ± 0.022 | 1.86 ± 0.12
15 | AGAGGC | 1.665 ± 0.0051 | 1.77 ± 0.13
16 | AGAGGG | 1.47 ± 0.098 | 1.62 ± 0.13
17 | AGAGGU | 1.57 ± 0.022 | 1.73 ± 0.077
18 | CGCAUU | 1.47 ± 0.073 | 1.61 ± 0.11
19 | CGCAUC | 1.66 ± 0.037 | 1.83 ± 0.11
20 | UGACUA | 1.665 ± 0.0041 | 1.78 ± 0.084
21 | UGACUG | 1.7 ± 0.033 | 1.84 ± 0.11
22 | UGACUU | 1.68 ± 0.043 | 1.85 ± 0.13
23 | CGAUGG | 1.67 ± 0.07 | 1.81 ± 0.073

Row | Variant | normalized RNA/DNA level without ligand (log10) (cyclic di-GMP [1]) | normalized RNA/DNA level with ligand (log10) (cyclic di-GMP [2])
24 | CGAUGU | 1.75 ± 0.025 | 1.91 ± 0.11
25 | AGCAGG | 1.822 ± 0.018 | 1.85 ± 0.1
26 | AGCAGU | 1.689 ± 0.0032 | 1.84 ± 0.13
27 | CGAACG | 1.75 ± 0.056 | 1.9 ± 0.089
28 | CGAACU | 1.48 ± 0.18 | 1.72 ± 0.042
29 | CGAACC | 1.679 ± 0.01 | 1.8 ± 0.098
30 | CGCCAG | 1.76 ± 0.075 | 1.9 ± 0.072
31 | UGAAGG | 1.661 ± 0.00062 | 1.84 ± 0.08
32 | UGAAGC | 1.679 ± 0.0046 | 1.83 ± 0.14
33 | UGAAGA | 1.62 ± 0.024 | 1.77 ± 0.13
34 | AGAGCG | 1.81 ± 0.05 | 1.84 ± 0.17
35 | AGAGCC | 1.78 ± 0.041 | 1.88 ± 0.12
36 | AGAGCU | 1.713 ± 0.012 | 1.84 ± 0.043
37 | AGAGCA | 1.806 ± 0.017 | 1.87 ± 0.098
38 | CGAGGG | 1.617 ± 0.014 | 1.76 ± 0.036
39 | CGAGGC | 1.74 ± 0.027 | 1.85 ± 0.079
40 | CGAGGA | 1.54 ± 0.027 | 1.65 ± 0.084
41 | CGAGGU | 1.72 ± 0.038 | 1.84 ± 0.096
42 | AGACCA | 1.75 ± 0.031 | 1.88 ± 0.15
43 | AGACCC | 1.79 ± 0.096 | 1.87 ± 0.18
44 | AGACCU | 1.76 ± 0.057 | 1.895 ± 0.0095
45 | AGAUGG | 1.55 ± 0.089 | 1.73 ± 0.082
46 | AGAUGU | 1.56 ± 0.036 | 1.77 ± 0.054

Row | Variant | normalized RNA/DNA level without ligand (log10) (cyclic di-GMP [1]) | normalized RNA/DNA level with ligand (log10) (cyclic di-GMP [2])
47 | CGACAC | 1.594 ± 0.0068 | 1.76 ± 0.11
48 | CGACAG | 1.8 ± 0.023 | 1.87 ± 0.091
49 | CGACAU | 1.43 ± 0.16 | 1.63 ± 0.12
50 | GGCAAU | 1.65 ± 0.1 | 1.75 ± 0.13
51 | GGCAAG | 1.55 ± 0.019 | 1.74 ± 0.15
52 | GGCAAA | 1.55 ± 0.074 | 1.65 ± 0.16
53 | GGCAAC | 1.72 ± 0.05 | 1.82 ± 0.1
54 | CGACCU | 1.54 ± 0.028 | 1.71 ± 0.09
55 | CGACCA | 1.667 ± 0.013 | 1.77 ± 0.12
56 | CGACCC | 1.753 ± 0.014 | 1.88 ± 0.1
57 | UGCCGA | 1.626 ± 0.012 | 1.79 ± 0.12
58 | UGCAUA | 1.7 ± 0.027 | 1.84 ± 0.084
59 | UGCAUU | 1.713 ± 0.0057 | 1.84 ± 0.056
60 | AGAACG | 1.463 ± 0.001 | 1.67 ± 0.094
61 | CGAAGU | 1.676 ± 0.0054 | 1.84 ± 0.16
62 | CGAAGG | 1.634 ± 0.0028 | 1.82 ± 0.097
63 | CGAAGC | 1.7 ± 0.06 | 1.81 ± 0.054
64 | UGAUAA | 1.633 ± 0.011 | 1.8 ± 0.089
65 | AGCCCA | 1.84 ± 0.046 | 1.92 ± 0.11
66 | AGCCCC | 1.81 ± 0.031 | 1.92 ± 0.12
67 | AGCCCU | 1.77 ± 0.047 | 1.88 ± 0.12
68 | GGAUAC | 1.67 ± 0.049 | 1.78 ± 0.16
69 | GGACCU | 1.74 ± 0.07 | 1.85 ± 0.05

Row | Variant | normalized RNA/DNA level without ligand (log10) (cyclic di-GMP [1]) | normalized RNA/DNA level with ligand (log10) (cyclic di-GMP [2])
70 | GGACCA | 1.72 ± 0.021 | 1.81 ± 0.021
71 | CGACUU | 1.44 ± 0.089 | 1.63 ± 0.12
72 | CGACUC | 1.72 ± 0.03 | 1.86 ± 0.14
73 | GGACAC | 1.71 ± 0.053 | 1.84 ± 0.13
74 | CGCCCU | 1.777 ± 0.0073 | 1.87 ± 0.077
75 | CGCCCA | 1.84 ± 0.069 | 1.91 ± 0.11
76 | CGCCCC | 1.818 ± 0.0078 | 1.9 ± 0.1
77 | CGCCCG | 1.756 ± 0.0093 | 1.87 ± 0.14
78 | AGAGAG | 1.46 ± 0.09 | 1.64 ± 0.14
79 | AGAGAU | 1.661 ± 0.0087 | 1.79 ± 0.11
80 | AGAGAC | 1.56 ± 0.035 | 1.69 ± 0.088
81 | UGAGUA | 1.73 ± 0.032 | 1.85 ± 0.15
82 | UGAGUU | 1.67 ± 0.017 | 1.8 ± 0.091
83 | AGCCAU | 1.718 ± 0.0054 | 1.8 ± 0.11
84 | AGCCAG | 1.68 ± 0.077 | 1.79 ± 0.058
85 | AGCCAC | 1.7 ± 0.041 | 1.86 ± 0.087
86 | GGAUCA | 1.63 ± 0.02 | 1.77 ± 0.13
87 | GGAUCC | 1.86 ± 0.058 | 1.93 ± 0.055
88 | UGAUCA | 1.76 ± 0.073 | 1.88 ± 0.11
89 | UGAUCU | 1.72 ± 0.023 | 1.86 ± 0.11
90 | UGAUCC | 1.89 ± 0.055 | 1.98 ± 0.075
91 | UGAUCG | 1.77 ± 0.053 | 1.84 ± 0.15
92 | AGAAAU | 1.71 ± 0.03 | 1.83 ± 0.058

Row | Variant | normalized RNA/DNA level without ligand (log10) (cyclic di-GMP [1]) | normalized RNA/DNA level with ligand (log10) (cyclic di-GMP [2])
93 | UGAUGG | 1.68 ± 0.081 | 1.83 ± 0.066
94 | UGAUGC | 1.754 ± 0.01 | 1.84 ± 0.09
95 | GGACGC | 1.656 ± 0.0062 | 1.82 ± 0.1
96 | UGACAU | 1.62 ± 0.074 | 1.81 ± 0.075
97 | UGACAC | 1.7 ± 0.022 | 1.87 ± 0.086
98 | UGACAA | 1.69 ± 0.018 | 1.8 ± 0.11
99 | UGACAG | 1.712 ± 0.0029 | 1.82 ± 0.097
100 | UGACGG | 1.68 ± 0.039 | 1.82 ± 0.11
101 | UGACGU | 1.57 ± 0.12 | 1.74 ± 0.13
102 | UGACGA | 1.595 ± 0.015 | 1.78 ± 0.091
103 | AGAUUC | 1.7 ± 0.021 | 1.85 ± 0.093
104 | AGAUUU | 1.66 ± 0.052 | 1.81 ± 0.17
105 | AGAUUG | 1.58 ± 0.049 | 1.77 ± 0.081
106 | GGCAGC | 1.716 ± 0.013 | 1.82 ± 0.081
107 | GGCAGU | 1.76 ± 0.071 | 1.849 ± 0.0031
108 | GGCAGA | 1.637 ± 0.013 | 1.76 ± 0.1
109 | GGCAGG | 1.82 ± 0.022 | 1.83 ± 0.042
110 | AGACGG | 1.62 ± 0.088 | 1.78 ± 0.089
111 | GGAGUC | 1.55 ± 0.046 | 1.79 ± 0.051
112 | AGCAAC | 1.65 ± 0.032 | 1.77 ± 0.092
113 | AGCAAG | 1.51 ± 0.09 | 1.68 ± 0.079
114 | CGAAUG | 1.66 ± 0.019 | 1.85 ± 0.047
115 | CGAAUC | 1.6 ± 0.043 | 1.78 ± 0.11
